Data taken from patent US20190241662A1 (ADAGENE, published 2019).
Where a chain is given by its changes, count along the chain named. Read-outs that look alike come from different tables or passages of the source.

Key:
[1] = target: T1, full-length mouse CTLA4 expressed on HEK293F cells (mouse, UniProt P09793 36-223); experiment: flow cytometry, transfected HEK293F cells, antibody concentration not printed [Cont.]
T1 construct: whole, on cells
Procedure: (§1) The affinities of the antibodies were also assessed against human and mouse CTLA4 transiently expressed on the surface of HEK293F cells (FIG. 2). Briefly, HEK293F cells were transfected with a plasmid expressing full-length human, monkey or mouse CTLA4 from a bicistronic IRES vector also encoding EGFP, and EGFP expression was used to identify the transfected cells. After 48 hours, the mammalian cell suspension (2×10⁵/well) was transferred to an Eppendorf tube, centrifuged, the supernatant was discarded, the cells were resuspended with 1 mL PBSA (to a density is 4×10⁶ cells/mL), and added to a 96 well plate. […] The cells were then washed once prior to analysis by flow cytometry (Beckman® CytoFlex).

[2] = target: T2, full-length human CTLA4 expressed on cells (human, UniProt P16410 36-223); experiment: as above
T2 construct: whole, on cells; also called HEK293F/hCTLA-4 cells; HEK293F/hCTLA4 cells
T2 sequence (looked up): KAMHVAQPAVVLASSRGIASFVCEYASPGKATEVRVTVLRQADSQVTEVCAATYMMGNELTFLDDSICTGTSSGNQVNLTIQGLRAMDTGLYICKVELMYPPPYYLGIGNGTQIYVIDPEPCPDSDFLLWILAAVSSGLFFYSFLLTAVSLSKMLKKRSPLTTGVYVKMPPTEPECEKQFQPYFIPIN
Procedure: as §1

[3] = target: T2, full-length human CTLA4 expressed on …; experiment: flow cytometry blocking: HEK293F cells with human CTLA4, 100 nM antibody, then 100 nM CD80-Fc-Bio (blocked ligand); PBSA panel: Mean 157692, 26.3%
Procedure: (§2) Antibodies were also tested for their ability to block binding of CTLA4 to its cognate ligands CD80 and CD86 by flow cytometry. The plasmid encoding full-length human CTLA4 was transiently expressed in HEK293F cells. Cells were washed with staining buffer (PBSA buffer including 1.76 mM KH₂PO₄, 10.14 mM Na₂HPO₄.12H₂O, 2.68 mM KCl, 136.89 mM NaCl and 1% BSA), and resuspended in staining buffer containing 100 nM test antibodies. […] Cells were washed once, and analyzed by CytoFlex flow cytometry.

[4] = target: T1, full-length mouse CTLA4 expressed on …; experiment: flow cytometry, transfected HEK293F cells [Cont.]
Procedure: as §1

[5] = target: T2, full-length human CTLA4 expressed on …; experiment: flow cytometry blocking: HEK293F cells with human CTLA4, 100 nM antibody, then 100 nM CD86-Fc-Bio (blocked ligand); PBSA panel: Mean 10678, 12.2%
Procedure: as §2

human CD86 = target: T3, human CD86 (human, UniProt P42081 24-247, limits assumed); experiment: yeast-display flow cytometry, Normalized FACS Bound
T3 construct: constructs not described; also called recombinant human CD86 fused with human Fc; CD86-Fc-Bio
T3 sequence (looked up): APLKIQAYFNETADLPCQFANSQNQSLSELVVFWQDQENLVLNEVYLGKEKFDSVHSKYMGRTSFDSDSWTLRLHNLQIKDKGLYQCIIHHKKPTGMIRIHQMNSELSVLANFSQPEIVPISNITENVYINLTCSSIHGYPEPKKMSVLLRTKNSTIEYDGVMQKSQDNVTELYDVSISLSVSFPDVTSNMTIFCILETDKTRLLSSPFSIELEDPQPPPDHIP

human CD80 = target: T4, human CD80 (human, UniProt P33681 35-242, limits assumed); experiment: as above
T4 construct: constructs not described; also called biotinylated CD80; CD80-Fc-Bio
T4 sequence (looked up): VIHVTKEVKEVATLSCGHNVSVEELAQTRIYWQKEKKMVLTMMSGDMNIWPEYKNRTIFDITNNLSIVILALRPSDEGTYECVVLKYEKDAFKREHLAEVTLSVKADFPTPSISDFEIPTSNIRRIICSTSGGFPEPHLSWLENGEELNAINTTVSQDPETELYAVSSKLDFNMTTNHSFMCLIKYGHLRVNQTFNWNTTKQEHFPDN

mouse CD86 = target: T5, mouse CD86 (mouse, UniProt P42082 24-244, limits assumed); experiment: as above
T5 sequence (looked up): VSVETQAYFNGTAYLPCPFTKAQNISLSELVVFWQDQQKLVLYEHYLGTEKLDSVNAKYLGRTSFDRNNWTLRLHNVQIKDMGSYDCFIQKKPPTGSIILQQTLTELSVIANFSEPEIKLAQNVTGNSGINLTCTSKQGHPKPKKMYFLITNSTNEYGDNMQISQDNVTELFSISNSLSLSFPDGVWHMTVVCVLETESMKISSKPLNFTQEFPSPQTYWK

[6] = target: T6, recombinant human CTLA4 fused with human Fc and His tag (human, UniProt P16410 36-162, limits assumed); experiment: competition ELISA: plate-bound human CTLA4-Fc-His, biotinylated CD80 as blocked ligand
T6 construct: Coated in the CD80 ELISA, biotinylated and in solution in the CD86 ELISA; also called biotinylated human CTLA4 fused with human FC and His tag
T6 sequence (looked up): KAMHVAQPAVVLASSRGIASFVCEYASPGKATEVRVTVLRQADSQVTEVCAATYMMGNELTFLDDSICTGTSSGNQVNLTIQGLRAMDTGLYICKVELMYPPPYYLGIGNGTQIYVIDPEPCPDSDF
Procedure: Antibodies were then tested for their ability to block binding of CTLA4 to its cognate ligands CD80 and CD86 by ELISA. […] Plates were blocked with PBS supplemented with 2% (w/v) skim milk at 37° C. for 1 hour. […] Plates were washed four times, and 100 μL HRP-neutravidin (1:1000) was added to each well and incubated at 37° C. for 1 hour. Plates were washed as previously described, and 50 μL TMB substrate solution was added and incubated at room temperature for 5 minutes before the reaction was stopped by 50 μL sulfate acid (2M).

[7] = target: T2, full-length human CTLA4 expressed on …; experiment: flow cytometry, transfected HEK293F cells, antibody concentration not given
Procedure: as §1

[8] = target: T7, recombinant human CTLA4-Fc (human, UniProt P16410 36-162); experiment: ELISA, coated human CTLA4-Fc (as in Example 8)
T7 construct: also called human CTLA4 fused with human FC fragment; CTLA4-Fc (Sino Biological, 11159-H03H)
T7 sequence (looked up): T6 sequence (looked up)
Procedure: (§3) Plates were blocked with PBS supplemented with 3% non-fat milk at 37° C. for 1 hour. After washing, 100 μL of 3-fold serial dilutions of antibodies were added to each well. After incubation at 37° C. for 1 hour, plates were washed four times, and 100 μL HRP conjugated anti-human IgG (Fab specific) (1:6000 dilution) was added to each well. Plates were incubated at 37° C. for 1 hour, washed four times, and then 50 μL TMB substrate solution was added to each well, and the plate was incubated at room temperature. […] The EC₅₀ was evaluated by fitting the ELISA data using the asymmetrical sigmoidal (five-parameter logistic equation) model of GraphPad Prism 6 software.

[9] = target: T7, recombinant human CTLA4-Fc; experiment: ELISA; EC50 divided by the EC50 of TY21580
Procedure: as §3

[10] = target: T7, recombinant human CTLA4-Fc; experiment: ELISA, coated human CTLA4-Fc (as in Example 8); remark: listed apart in the source
Procedure: as §3

[11] = target: T7, recombinant human CTLA4-Fc; experiment: ELISA; EC50 divided by the EC50 of TY21580; remark: listed apart in the source
Procedure: as §3

[12] = target: T7, recombinant human CTLA4-Fc; experiment: ELISA on plate-coated recombinant human CTLA4-Fc, detection with HRP anti-human IgG (Fab specific)
Procedure: as §3

B1: TY21589 (antibody, V domains shown)
VH: EVQLVESGGGLVQPGGSLRLSCAASGFTFSDYWIHWVRQAPGKGLEWIGWISPSGGGTKYAQKFQGRVTISRDNSKNTLYLQLNSLRAEDTAVYYCARGAYEFDYWGQGTLVTVSS
VL: DIQLTQSPSSLSASVGDRVTITCRASQSVSSRFLAWYQQKPGKAPKLLIYDASNRATGIPSRFSGSGSGTDFTLTISSLQPEDFATYYCQQSYPTPLTFGQGTKVEIK
notes: human IgG1 (hIgG1) from Fab hit B15740
For B1, the “% of cells in upper right quadrant (Q2)” value [1] was 1.36%, the “% of cells in upper right quadrant (Q2)” value [2] was 29.7% and the “% of cells in upper right quadrant (CD80-positive) in the presence of the antibody” value [3] was 27.5%. The “Mean of the CD80 binding signal in the presence of the antibody” value [3] was 110000, the binding result [4] was “no binding (tested: not printed on the sheet)” and the “% of cells in upper right quadrant (CD86-positive) in the presence of the antibody” value [5] was 0.55%. The “Mean of the CD86 binding signal in the presence of the antibody” value [5] was 6660.

B2: human CTLA4 mutant ADSQVT42TNDQMT displayed on yeast (receptor)
chain: KAMHVAQPAVVLASSRGIASFVCEYASPGKATEVRVTVLRQTNDQMTEVCAATYMMGNELTFLDDSICTGTSSGNQVNLTIQGLRAMDTGLYICKVELMYPPPYYLGIGNGTQIYVIDPE
notes: also called human CC' loop motif changed to the mouse motif
B2: binds (human CD86); binds (human CD80); binds (mouse CD86).

B3: human CTLA4 mutant LGI106AAA displayed on yeast (receptor)
chain: B2 chain with T42A, N43D, D44S, M46V, L106A, G107A, I108A
B3: binds (human CD86); binds (human CD80); binds (mouse CD86).

B4: TY21587 (antibody, V domains shown)
VH: EVQLVESGGGLVQPGGSLRLSCAASGFTFSDYGIHWVRQAPGKGLEWIGEIYHSGSTYYSPSLKSRVTISRDNSKNTLYLQLNSLRAEDTAVYYCARDVAPGSSGYYDGFDFWGQGTLVTVSS
VL: DIQLTQSPSSLSASVGDRVTITCRASQGIGSSLAWYQQKPGKAPKLLIYDASNRATGIPSRFSGSGSGTDFTLTISSLQPEDFATYYCQQYDQWPPWTFGQGTKVEIK
notes: human IgG1 (hIgG1) from Fab hit B15722
B4 was tested, and the “IC50 (read off the curve)” value [6] was ~30 nM, the “% of cells in upper right quadrant (CD80-positive) in the presence of the antibody” value [3] was 25.8% and the “Mean of the CD80 binding signal in the presence of the antibody” value [3] was 85700. The “% of cells in upper right quadrant (Q2)” value [7] was 23.6%, the “% of cells in upper right quadrant (CD86-positive) in the presence of the antibody” value [5] was 6.59% and the “Mean of the CD86 binding signal in the presence of the antibody” value [5] was 5710.

B5: YLGIG105FVGMG (receptor, Homo sapiens, UniProt P16410 36-161, looked up)
CTLA4: KAMHVAQPAVVLASSRGIASFVCEYASPGKATEVRVTVLRQADSQVTEVCAATYMMGNELTFLDDSICTGTSSGNQVNLTIQGLRAMDTGLYICKVELMYPPPYFVGMGNGTQIYVIDPEPCPDSD
B5: binds (human CD86); binds (human CD80); binds (mouse CD86).

B6: TY22402 (antibody, IgG1, V domains shown)
VH: EVQLVESGGGLVQPGGSLRLSCAASGYSISSGYHWSWIRQAPGKGLEWLARIDWDDDKYYSTSLKSRLTISRDNSKNTLYLQLNSLRAEDTAVYYCARSYVYFDYWGQGTLVTVSS
VL: EVGSYIVHHSDCDAFYPYCDSSGRSAGGGGSPLGLAGSGGSDIQLTQSPSSLSASVGDRVTITCRASQSVRGRFLAWYQQKPGKAPKLLIYDASNRATGIPSRFSGSGSGTDFTLTISSLQPEDFATYYCQQSSSWPPTFGQGTKVEIKR
notes: IgG1; peptide fused to the N-terminus of the light chain of TY21580
For B6, the EC50 [8] was 54 nM, the masking efficiency [9] was 554 and the EC50 [10] was 116 nM. For the same binder, the masking efficiency [11] was 243.

B7: TY22566 (antibody, IgG1, V domains shown)
VH: B6 VH
VL: EVGSYPNPASDCVPYYYACAYSGRSAGGGGSPLGLAGSGGSDIQLTQSPSSLSASVGDRVTITCRASQSVRGRFLAWYQQKPGKAPKLLIYDASNRATGIPSRFSGSGSGTDFTLTISSLQPEDFATYYCQQSSSWPPTFGQGTKVEIKR
notes: IgG1
With B7 the “EC50 (read off the curve)” value [12] was ~200 nM.

B8: TY22864 (antibody, V domains shown)
VH: B6 VH
VL: DIQLTQSPSSLSASVGDRVTITCRASQSVRGRFLAWYQQKPGKAPKLLIYDASNRATGIPSRFSGSGSGTDFTLTISSLQPEDFATYYCQQSSSWPPTFGQGTKVEIKR
With B8 the EC50 [10] was 117 nM.

B9: TY22563 (antibody, IgG1, V domains shown)
VH: B6 VH
VL: B6 VL with I6Y, V7S, H8A, H9Y, S10P, D11A, A14S, F15H, D20Q
notes: IgG1
For B9, the “EC50 (read off the curve)” value [12] was ~60 nM.

B10: TY22871 (antibody, V domains shown)
VH: B6 VH
VL: B8 VL
With B10 the EC50 [10] was 88.1 nM.
